The nanobody polyreactivity screen of Harvey et al. (2022)

Test: yeast display, Sf9 membrane polyspecificity reagent, FACS + sequencing; frameworks hold sequencing errors
In short: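 Synthetic nanobody libraries on Saccharomyces cerevisiae BJ5465 were galactose-induced for 36–48 hours, stained 1 hour at 4 °C with 10% biotinylated, detergent-solubilized Sf9 membrane reagent and enriched on streptavidin microbeads. FACS then separated cells into low and high (top ~1%) gates by anti-HA (expression) and streptavidin (reagent binding) fluorescence. Genes were colony-PCR amplified, MiSeq 2 × 250 sequenced and CDR-length filtered. A clone's polyreactivity label is that of its gate of origin.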
For “QDQLVESGGGLVQAGGSLRLSCAASGSTFSYNAMGWYRQAPGKERELVAAIRWSGGSTYADSVKGRFTISRDNAKNTVYLQMNSLNPEDTAVYYCAARNFGYPELRYYYWGQGTQVTVSS”, the “polyreactivity (PSR sort gate)” value was “high polyreactivity”.
For “QVQLVESGGGKVQAGGSLRLSCAASGNTFTSNALGWYRQAPGKERELVAAISISGSTNYADSVKGRFTISRDNAKNSVYLQMNSLKPEDTAVYSCAARVGYTAWRRYNYWGQGTQVTVSS”, the “polyreactivity (PSR sort gate)” value was “high polyreactivity”.
In the case of “QVQLVESGGGLVQAGGSLRLSCAASGIIFKIYAMGWYRQAPGKARELVAAISWRGGSTYYADSVKGRFTISRDNAKNTVYLQMNSLKPEDTAVYYCAAARGYRTGYGYWGQGTQVTVSS”, the “polyreactivity (PSR sort gate)” value is reported as “high polyreactivity”.
For “QVQLVESGGGLVQAGGSLRLSCAASGRTIDYNGMGWYRQAPGKERELVAVISTSGGSTFYADSVKGRFTISRDNAKKTVYLQMNSLKPEDTAVYYCAADFIVAYTLHGSYDYWGQGTQVTVSS”, the “polyreactivity (PSR sort gate)” value was “low polyreactivity”.
With “QVQLVESGGGLVQAGGSLRLSCAASGSTFHVNAMGWYRQAPGKEREFGAVISSSAGRTYYADSVKGRFTISRDNAKNTVYLQMNSLKPEDTAVYYCAAGTFKPYWRKFEYWGQGTQVTVSS” the “polyreactivity (PSR sort gate)” value was “high polyreactivity”.
In the case of “QVQLVESGGGLVQAGGSLRLSCAASGSTFGSYAMGWYRQAPGKERELVAAITTSGSSTYYADSVKGRFTISRDNAKNTVYLQMNSLKPEDTAVYYCNARPRRLSYSSYNYWGQGTQVTVSS”, the “polyreactivity (PSR sort gate)” value is reported as “high polyreactivity”.
With “QVQLVESGGGLVQAGGSLRLSCADSGRIFGYNAMGWYRQAPGKEREFVAAITTSGGSTYYADSVKGRFTISRDNAKKTVFLQMTSLKPEDTAVYYCARDSLHVFYPYASDDYWGQGTQVTVSS” the “polyreactivity (PSR sort gate)” value was “low polyreactivity”.
For “QVQLVESGGGLVKAGGSLRLSCAASGRTFLRNAMGWYRQAPGKERELVATITRGGSTYYADSVKGRFTISRDNAKYTCYLEIISLIPEDTAVYYCAKDITGGFRRPDYGYLGQGTQVTVSS”, the “polyreactivity (PSR sort gate)” value was “low polyreactivity”.
For “QVQLVESGGGLVQAGGSLRLSCAASGRTIPAYAMGWYRQAPGKERELVAAISWGGGSTYYADSVKGRFTISRDNAKNTVYLQMNSLKPEDTAVYYCAVAGYWFAVAEYDYWGQGTQVTVSS”, the “polyreactivity (PSR sort gate)” value was “low polyreactivity”.
With “QVQLVESGGGLVQAGGSLRLSCAASGLIFSYYAMGWYRQAPGKERELVGAITGSGGSTYYADSVKGRFTISRDNAKNTVYLQMNSLKPEDTAVYYCAAGRYAYTLSRKYDYWGQGTQVTVSS” the “polyreactivity (PSR sort gate)” value was “high polyreactivity”.
In the case of “QVQLVESGGGLVQAGGSLRLSCAASGRILTNYVMGWYRQAPGKERELVAAITDSGGITYADSVKGRFTISRDNAKNTVYLQMNSLKPEDTAVYYCAAVRFFLYYFDFSAYDYWGQGTQVTVSS”, the “polyreactivity (PSR sort gate)” value is reported as “low polyreactivity”.
With “QVQLVESVGGLVQAGGSLRLSCAASGFIFRKYVMGLYIQAPGKERELVAAITRSCTSTYYADSVKGRFTISRDNAKNTVYLQMNSLKPEDTAVYYCNVGSDGWYYWGQGTQVTVSS” the “polyreactivity (PSR sort gate)” value was “low polyreactivity”.
In the case of “QVQLVESGGGLVQAGGSLRLSCAASGKIFNNYVMGWYRQAPGKVRELVARIDSGGSTNYADSVKGRFTISRDNAKNTVYLQMNSLKPEDTAVYYCAARKLSSYAYDYWGQGTQVTVSS”, the “polyreactivity (PSR sort gate)” value is reported as “low polyreactivity”.
With “QVQLIESGGGLVQAGGSLRLSCAASGRTFKRYAMGWYRQAPGKERELVARITYSGARTYYADSVKGRFTISRDNAKNTVYLQMNSLKPEDTAVYYCAAQQYWTSQYFRSATFDYWGQGTQVTVSS” the “polyreactivity (PSR sort gate)” value was “high polyreactivity”.
For “QVQLVESGLGLVQAGGSLRISCAASGRIFYYNAMGWYRQAPGKERELVARIRRSGGRTYYADSVKGRFTISRDNAKNTVYLLMNSLKPADTAVYYCAARRQGRSGNGSWGQGTQVTVSW”, the “polyreactivity (PSR sort gate)” value was “high polyreactivity”.
In the case of “QVQLQESAGGRQPAPELRGERLYFWLLLMGWYRQAPGEERELVAGINYGASTNYSDSVKGRFTISRDNARNTVYLKMNSLKPGDTAVYYCAVWQPVLIWFYYWGQGTQVTVSS”, the “polyreactivity (PSR sort gate)” value is reported as “high polyreactivity”.
For “QVQLVESGGGLVQAGGSLRLSCAASGLIFTDYAMGWYRQAPGKDRELVATITARGGDTYYADSVKGRFTISRDNAKNTVYLQMNSLKPEDTAVYYCAAEYLSGGEAGMYYWGQGTQVTVSS”, the “polyreactivity (PSR sort gate)” value was “low polyreactivity”.
For “QVQLVESGGGLVQAGGSLRLSCAASGRTFYYNAMGWYRQAPGKEREFVAAIRYSGGITYYADSVKGRFTISRDNAKNTVYLQMNSQKPEDTAVYYCAADYVSRRYYYWGQGTQVTVSS”, the “polyreactivity (PSR sort gate)” value was “high polyreactivity”.
In the case of “QVQLVESGGGLVQAGGSLRLRCAATGSTFVYNAMGWYRPAPGKVRELVARITRSGGSTYYADSVKGRFTISRDNAKNTVYLQMKSLKPEDTAVYYCAKEREGHSVRIGPRYNYWGQGSQVTVSS”, the “polyreactivity (PSR sort gate)” value is reported as “low polyreactivity”.
For “QVQLVESGGGLVQAGGSLRLSCAASGRTFWINAMGWYRQAPGKERELVAAITRGGRTYADSVKGRFTISRDNAKYTVYLQMNSLKPEDTAVYYCAAESYRLSGHHGYDYWGQCTQVTVSS”, the “polyreactivity (PSR sort gate)” value was “high polyreactivity”.
In the case of “QVQLVESARGIVQAGGSLRLSSAASGFIFYSSAMGGYRQAPGYERELVAGITSGGITSYADSVKGRFTISRDNAKNTVYLQMNSLKPEYTAVYYCAAVVVYQNYNYYYWGQGTQVTVSS”, the “polyreactivity (PSR sort gate)” value is reported as “high polyreactivity”.
In the case of “QVQLVESGGGLVQAGGSLRLSCAASGYTFATYTMGWYRQAPGKERELVAAITGGGGSTSYADSVKGRFTISRDNAKNTVYLQMNSLKLEDTAVYYCNAGISVDYSLEKYDYWGQGTQVTVSS”, the “polyreactivity (PSR sort gate)” value is reported as “low polyreactivity”.
For “QVQLVESGGGLVQAGGSLRLSCAASGFIFGLYAMGWYRQAPGKERELVAAISGSGGSTYYADSVKGRFTISRDNAKNTVYLQMNSLKPEDTAVYYCNRAQGVHTYVYRYGYWGQGTQVTVSS”, the “polyreactivity (PSR sort gate)” value was “low polyreactivity”.
For “QVQLVESGGGLVQAGGSLRLSCAASGSTYYTYAMGWYRQAPGKERELVAAITYSDGDTYYADSVKGRFTISRDNAKHTVYLQMNSLKPEDTAVYYCAADYQGQPGTGNLEYWGQGTQVTVSS”, the “polyreactivity (PSR sort gate)” value was “low polyreactivity”.
For “QVQLVESGGGLVQAGGSLRLSCAASGSTFNGYTMGWYRQAPGKERELVAAITWSGGRTYYADSVKGRFTISRDNAKNTVYLQMNSLKPEDTAVYYCAAKLRSRYDYWGQGTQVTVSS”, the “polyreactivity (PSR sort gate)” value was “high polyreactivity”.
For “QVQLVESRGGLVQAGGSLRLSCAASGFILSWYAMGWYRQARGKERELVAAISTSGDSTYYADSVKGRFTISRDNAKNTVYVQMNRLKPEDTAVYYCAAVKVSAGTSRGYYYWGPGTQVTVSS”, the “polyreactivity (PSR sort gate)” value was “high polyreactivity”.
With “QVQLVESGGGLVQAGGSLRLSCAASGRIFGAYAMGWYRQAPGKERELVASITGRGTSTYYADSVKGRFTISRDNAKNTVYLQMNSLKPEDSAVYYCAADKTVRSSNYDYWGQGTQVTVSS” the “polyreactivity (PSR sort gate)” value was “low polyreactivity”.
With “QVQLVESGGGLVKAGGSLRLSCAASGSTFVGYAMGWYRQAPGKERELVADITWSGTNTYYADSVKGRFTISRDNAKNTVYLQMNSLKPEDTAVYYCAADIARSVRFYYWGQGTQVTVSS” the “polyreactivity (PSR sort gate)” value was “low polyreactivity”.
For “QVQLVESGGGLVQAGGSLRLSCAASGGTFPYSAMGWYRQAPGKERELVAAISRSGARTYYADSVKGRFTISRDNAKNTVYLQMNSLKPEDTAVYYCATDNTYGYDYWGQGTQVTVSS”, the “polyreactivity (PSR sort gate)” value was “high polyreactivity”.
For “QVQLVESGGGLVQAGGSLRLSCAASGSIFSGYTMGWYRQAPGKERELVAGISYRGGSTYYADSVKGRFTNSRDNAKNTVYLQMNSLKPEDTAVYYCAALYYRRGSLNYEYWGQGTQVTVSS”, the “polyreactivity (PSR sort gate)” value was “high polyreactivity”.
With “QVQLVETGGGLVQAGGSLRLSCAASGLTFKYYTKGWYRQAPGKERELVASISWSGGSTYYADSVKGRFTISRDNAKNTVYLQMNSLKPEDTAVYYCARRGYWGPGALGGGGYYWGQGTQVTVSS” the “polyreactivity (PSR sort gate)” value was “high polyreactivity”.
With “QVQLVESVGGLVQAGGSLRLSCAASGFIVSTYAMGWYRQAPGKERELVAAITNSGGSTYYADSVKGRFTISRDNAKNTVYLQMNSLKPEDTAVYYCARRRSYRDNYWGQGTQVTVSS” the “polyreactivity (PSR sort gate)” value was “high polyreactivity”.
With “QVQLVESGGGLVQAGGSLRLSCAASGRIFDVNVMGWYRQAPGKERELVADISSGGGTDYADSVKGRFTISRDNAKNTVYLQMNILKQEDTAVYSCDWGQGTQVTVSS” the “polyreactivity (PSR sort gate)” value was “low polyreactivity”.
In the case of “QVQLVESGGGLVQAGGSLRLSCAASGRTFPVYAMGWYRQAPGKERELVATIRRRDGSTYADSVKGRFTISRDNAKNTVYLQMNSLKPEDTAVYYCNAAYRQATPWYYAWYDYWGQVTQVTVSS”, the “polyreactivity (PSR sort gate)” value is reported as “high polyreactivity”.
For “QLQLVESGGGLVQAGGSLRLSCAASGIIFDGYSRGWYRQAPGKEREFVAAITSGGGSTSYADSVKGRFTISRDYAKNTVYLQMNSLKPEDTAVYYCAARSNRFYVRQRYGYWGQGTQVTVSS”, the “polyreactivity (PSR sort gate)” value was “high polyreactivity”.
In the case of “QVQLVESGGGLVQAGGSLRLSCAASGSTFTLYAMGWYRQAPGKERELVAAISGIGDSTYYADSVKGRFTISRDNAKNTVYFQMNSLKPEDTAVYYCAADGEYRYVWEYESWGQGTQVTVSS”, the “polyreactivity (PSR sort gate)” value is reported as “low polyreactivity”.
With “QVQLVESGGGLVQAGGILRLSCAASGRIFVLNPMGWSRQAPGKERELVAASSGSGSRTYYADSVKGRFTISRDNAKNTVYLQMNSLKPEDTEVYYCNTVSRRSEHTYDYWGQGTQVTVSS” the “polyreactivity (PSR sort gate)” value was “high polyreactivity”.
For “QVQLVESGGGLVQAGGSLRLSCAASGGIFDIYAMGWYRQAPGKERELVAAIRGSGGRTYYADSVKGRFTISRDNAKNTVYLQMNSLKPEDTAVYYCAARPSIVTGLRYGYWGQGTQVTVSS”, the “polyreactivity (PSR sort gate)” value was “high polyreactivity”.
With “QVQLVESGGGLVQAGGSLRLSCDASGSTFYRNVIGWYRQAPGKERELVAAISSGGSTYYADSVKGRFTISRDNAKNTVYFQMNSLKPEDTAVYYCAARKRYSYDYWGQGTQVTVSS” the “polyreactivity (PSR sort gate)” value was “low polyreactivity”.
In the case of “QVQLVESGGGLVQAGGSLRLTCAASGNIFFVYDMGWYRQAPGKERELVAAISWSGGSTYADSVKGRFTISRDNAKNTVYLQMNSVKPEDTAVDYCAADVAYVEYDYWGQGTQVTVSS”, the “polyreactivity (PSR sort gate)” value is reported as “low polyreactivity”.
For “QVQLVESGGGLVQAGGSLRLSCAASGSTFAKNAMGWYRQAPGKERQLVAAITYSGGSTYYADSVKGRFTISRDNAKNTVYLQMNSLKPEDTAVYYCAADVWWSYYRYDYWGQGTQVTVSS”, the “polyreactivity (PSR sort gate)” value was “low polyreactivity”.
